Laboratory results: the Human Domainome abundance scans (Beltran et al. 2025)
± gives the uncertainty stated by the source.

B1: Cullin-9, residues 2234 to 2275; numbered along this chain, Q8IWT3 (parent)
chain: KRCPSCQAPIEKNEGCLHMTCAKCNHGFCWRCLKSWKPNHKD

Variants of: B1
Test: abundance fitness (aPCA) (normalised: wild type 0, dead -1); higher = more abundant; growth selection in yeast, the domain comes from the species named
Settings: Homo sapiens

Variant | abundance fitness
KRCPSCQAPIEKNEGCLHMTCAKCMHGFCWRCLKSWKPNHKD [N25M] | -0.06 ± 0.14
KRCPSCQAPIEKNEGCLHMTCAKCFHGFCWRCLKSWKPNHKD [N25F] | -0.242 ± 0.16
KRCPSCQAPIEKNEGCLHMTCAKCRHGFCWRCLKSWKPNHKD [N25R] | -0.25 ± 0.081
KRCPSCQAPIEKNEGCLHMTCAKCGHGFCWRCLKSWKPNHKD [N25G] | 0.208 ± 0.077
KRCPSCQAPIEKNEGCLHMTCAKCPHGFCWRCLKSWKPNHKD [N25P] | -0.382 ± 0.12
KRCPSCQAPIEKNEGCLHMTCAKCCHGFCWRCLKSWKPNHKD [N25C] | 0.126 ± 0.12
KRCPSCQAPIEKNEGCLHMTCAKCKHGFCWRCLKSWKPNHKD [N25K] | -0.092 ± 0.14
KRCPSCQAPIEKNEGCLHMTCAKCDHGFCWRCLKSWKPNHKD [N25D] | 0.087 ± 0.12
KRCPSCQAPIEKNEGCLHMTCAKCQHGFCWRCLKSWKPNHKD [N25Q] | 0.082 ± 0.14
KRCPSCQAPIEKNEGCLHMTCAKCAHGFCWRCLKSWKPNHKD [N25A] | -0.127 ± 0.091
KRCPSCQAPIEKNEGCLHMWCAKCNHGFCWRCLKSWKPNHKD [T20W] | -0.172 ± 0.093
KRCPSCQAPIEKNEGCLHMDCAKCNHGFCWRCLKSWKPNHKD [T20D] | -0.166 ± 0.14
KRCPSCQAPIEKNEGCLHMRCAKCNHGFCWRCLKSWKPNHKD [T20R] | -0.143 ± 0.077
KRCPSCQAPIEKNEGCLHMACAKCNHGFCWRCLKSWKPNHKD [T20A] | -0.218 ± 0.085
KRCPSCQAPIEKNEGCLHMGCAKCNHGFCWRCLKSWKPNHKD [T20G] | -0.288 ± 0.083
KRCPSCQAPIEKNEGCLHMHCAKCNHGFCWRCLKSWKPNHKD [T20H] | -0.154 ± 0.15
KRCPSCQAPIEKNEGCLHMICAKCNHGFCWRCLKSWKPNHKD [T20I] | 0.196 ± 0.16
KRCPSCQAPIEKNEGCLHMECAKCNHGFCWRCLKSWKPNHKD [T20E] | -0.306 ± 0.11
KRCPSCQAPIEKNEGCLHMFCAKCNHGFCWRCLKSWKPNHKD [T20F] | -0.462 ± 0.24
KRCPSCQAPIEKNEGCLHMLCAKCNHGFCWRCLKSWKPNHKD [T20L] | -0.099 ± 0.097

Variant | abundance fitness
KRCPSCQAPIEKNEGCLHMQCAKCNHGFCWRCLKSWKPNHKD [T20Q] | -0.029 ± 0.1
KRCPSCQAPIEKNEGCLHMPCAKCNHGFCWRCLKSWKPNHKD [T20P] | -0.103 ± 0.1
KRCPSCQAPIEKNEGCLHMSCAKCNHGFCWRCLKSWKPNHKD [T20S] | -0.304 ± 0.097
KRCPSCQAPIEKNEGCLHMMCAKCNHGFCWRCLKSWKPNHKD [T20M] | -0.035 ± 0.12
KRCPSCQAPIEKNEGCLHMCCAKCNHGFCWRCLKSWKPNHKD [T20C] | -0.447 ± 0.13
KRCPSCQAPIEKNEGCLHMYCAKCNHGFCWRCLKSWKPNHKD [T20Y] | 0.316 ± 0.2
KRCPSCQAPIEKNEGCLHNTCAKCNHGFCWRCLKSWKPNHKD [M19N] | -0.161 ± 0.18
KRCPSCQAPIEKNEGCLHQTCAKCNHGFCWRCLKSWKPNHKD [M19Q] | -0.019 ± 0.12
KRCPSCQAPIEKNEGCLHDTCAKCNHGFCWRCLKSWKPNHKD [M19D] | 0.046 ± 0.13
KRCPSCQAPIEKNEGCLHKTCAKCNHGFCWRCLKSWKPNHKD [M19K] | 0.003 ± 0.13
KRCPSCQAPIEKNEGCLHHTCAKCNHGFCWRCLKSWKPNHKD [M19H] | -0.405 ± 0.21
KRCPSCQAPIEKNEGCLHWTCAKCNHGFCWRCLKSWKPNHKD [M19W] | -0.223 ± 0.1
KRCPSCQAPIEKNEGCLHFTCAKCNHGFCWRCLKSWKPNHKD [M19F] | -0.48 ± 0.22
KRCPSCQAPIEKNEGCLHCTCAKCNHGFCWRCLKSWKPNHKD [M19C] | -0.012 ± 0.13
KRCPSCQAPIEKNEGCLHLTCAKCNHGFCWRCLKSWKPNHKD [M19L] | -0.034 ± 0.092
KRCPSCQAPIEKNEGCLHYTCAKCNHGFCWRCLKSWKPNHKD [M19Y] | -0.803 ± 0.46
KRCPSCQAPIEKNEGCLHATCAKCNHGFCWRCLKSWKPNHKD [M19A] | -0.048 ± 0.095
KRCPSCQAPIEKNEGCLHITCAKCNHGFCWRCLKSWKPNHKD [M19I] | -0.008 ± 0.19
KRCPSCQAPIEKNEGCLHRTCAKCNHGFCWRCLKSWKPNHKD [M19R] | -0.28 ± 0.08
KRCPSCQAPIEKNEGCLHTTCAKCNHGFCWRCLKSWKPNHKD [M19T] | 0.182 ± 0.11

Variant | abundance fitness
KRCPSCQAPIEKNEGCLHPTCAKCNHGFCWRCLKSWKPNHKD [M19P] | 0.012 ± 0.1
KRCPSCQAPIEKNEGCLHETCAKCNHGFCWRCLKSWKPNHKD [M19E] | -0.186 ± 0.1
KRCPSCQAPIEKNEGCLHGTCAKCNHGFCWRCLKSWKPNHKD [M19G] | -0.22 ± 0.074
KRCPSCQAPIEKNEGCLHSTCAKCNHGFCWRCLKSWKPNHKD [M19S] | 0.016 ± 0.097
KRCPSCQAPIEKNEGCLHVTCAKCNHGFCWRCLKSWKPNHKD [M19V] | 0.264 ± 0.076
KRCPSCQAPIEKNEGCLEMTCAKCNHGFCWRCLKSWKPNHKD [H18E] | 0.019 ± 0.094
KRCPSCQAPIEKNEGCLWMTCAKCNHGFCWRCLKSWKPNHKD [H18W] | -0.329 ± 0.09
KRCPSCQAPIEKNEGCLQMTCAKCNHGFCWRCLKSWKPNHKD [H18Q] | 0.106 ± 0.1
KRCPSCQAPIEKNEGCLLMTCAKCNHGFCWRCLKSWKPNHKD [H18L] | -0.104 ± 0.09
KRCPSCQAPIEKNEGCLDMTCAKCNHGFCWRCLKSWKPNHKD [H18D] | -0.274 ± 0.16
KRCPSCQAPIEKNEGCLRMTCAKCNHGFCWRCLKSWKPNHKD [H18R] | -0.016 ± 0.073
KRCPSCQAPIEKNEGCLYMTCAKCNHGFCWRCLKSWKPNHKD [H18Y] | -0.503 ± 0.16
KRCPSCQAPIEKNEGCLPMTCAKCNHGFCWRCLKSWKPNHKD [H18P] | -0.427 ± 0.098
KRCPSCQAPIEKNEGCLVMTCAKCNHGFCWRCLKSWKPNHKD [H18V] | -0.393 ± 0.099
KRCPSCQAPIEKNEGCLCMTCAKCNHGFCWRCLKSWKPNHKD [H18C] | -0.425 ± 0.14
KRCPSCQAPIEKNEGCLFMTCAKCNHGFCWRCLKSWKPNHKD [H18F] | -0.058 ± 0.29
KRCPSCQAPIEKNEGCLMMTCAKCNHGFCWRCLKSWKPNHKD [H18M] | 0.154 ± 0.1
KRCPSCQAPIEKNEGCLGMTCAKCNHGFCWRCLKSWKPNHKD [H18G] | -0.216 ± 0.081
KRCPSCQAPIEKNEGCLIMTCAKCNHGFCWRCLKSWKPNHKD [H18I] | -0.155 ± 0.19
KRCPSCQAPIEKNEGCLTMTCAKCNHGFCWRCLKSWKPNHKD [H18T] | -0.438 ± 0.12
